This note sets out measurements from patent US6660837 (KIRIN BEER, dated 2003).

For assay [1], the target named is T1, LexA DNA binding domain fused to PKNN1 (amino acid sequence 1-540 of PKN), pBTM/PKNN1 (human, UniProt P0A7C2 1-202 (Escherichia coli entry)).
T1 construct: also called LexAbd-PKN; LexA-PKNN1
In words: yeast two-hybrid, lacZ expression in L40 cells.

Assay [2] addresses T2, Gal4 DNA-binding domain fused to PKNN1 (amino acid sequence 1-540 of PKN), pGBT9 (human, UniProt P04386 1-147 (Saccharomyces cerevisiae entry)).
T2 construct: range 1-147; also called Gal4bd-PKN
Briefly: yeast two-hybrid library screen, HIS3 and β-galactosidase.

Assay [3] concerns the target T3, PKN purified from rat testis cytosol (rat, UniProt Q63433 2-946, limits assumed).
T3 construct: also called purified PKN; rat PKN
Briefly: apparent Ki from kinase kinetics with δPKC peptide substrate; double-reciprocal plots and secondary plot of Km/Vmax.

Assay [4] addresses T3, PKN purified from rat testis cytosol. In words: cell-based or functional assay.
Assay [5] deals with catalytic subunit of bovine heart PKA (bovine, UniProt P00517 2-351). Briefly: cell-based or functional assay.
Assay [6] has as its target T4, PKNN2 (N-terminal region of PKN, amino acid sequence 1-474), 35S-labeled, in vitro translated (human, UniProt Q16512 1-474, [35S]methionine label).
T4 construct: also called in vitro translated PKN-N; PKN prepared by in vitro translation
Briefly: GST pull-down of 35S-labeled in vitro translated PKNN2.

Assay [7] deals with RhoA^Val14CLVL^- fused to the VP16 activation domain (human, UniProt P06492 413-490; P61586 1-189). Briefly: yeast two-hybrid with truncated PKN.

Where only a bound is given, the exact number is not on record here.

T4 sequence (Q16512 1-474): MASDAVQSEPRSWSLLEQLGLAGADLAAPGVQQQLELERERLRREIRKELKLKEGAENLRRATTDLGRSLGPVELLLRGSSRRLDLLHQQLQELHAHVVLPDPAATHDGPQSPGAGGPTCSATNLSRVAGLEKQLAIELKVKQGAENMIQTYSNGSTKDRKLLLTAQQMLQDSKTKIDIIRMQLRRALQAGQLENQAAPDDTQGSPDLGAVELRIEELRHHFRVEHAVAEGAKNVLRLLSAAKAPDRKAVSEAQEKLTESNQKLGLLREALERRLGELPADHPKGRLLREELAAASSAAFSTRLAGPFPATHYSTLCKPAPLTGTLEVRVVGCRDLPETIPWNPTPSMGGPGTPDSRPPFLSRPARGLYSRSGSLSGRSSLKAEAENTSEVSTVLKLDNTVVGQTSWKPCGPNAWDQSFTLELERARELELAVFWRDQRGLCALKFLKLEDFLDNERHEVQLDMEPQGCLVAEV
T1 sequence (P0A7C2 other isoform, or with tags, fused parts or gaps limits assumed): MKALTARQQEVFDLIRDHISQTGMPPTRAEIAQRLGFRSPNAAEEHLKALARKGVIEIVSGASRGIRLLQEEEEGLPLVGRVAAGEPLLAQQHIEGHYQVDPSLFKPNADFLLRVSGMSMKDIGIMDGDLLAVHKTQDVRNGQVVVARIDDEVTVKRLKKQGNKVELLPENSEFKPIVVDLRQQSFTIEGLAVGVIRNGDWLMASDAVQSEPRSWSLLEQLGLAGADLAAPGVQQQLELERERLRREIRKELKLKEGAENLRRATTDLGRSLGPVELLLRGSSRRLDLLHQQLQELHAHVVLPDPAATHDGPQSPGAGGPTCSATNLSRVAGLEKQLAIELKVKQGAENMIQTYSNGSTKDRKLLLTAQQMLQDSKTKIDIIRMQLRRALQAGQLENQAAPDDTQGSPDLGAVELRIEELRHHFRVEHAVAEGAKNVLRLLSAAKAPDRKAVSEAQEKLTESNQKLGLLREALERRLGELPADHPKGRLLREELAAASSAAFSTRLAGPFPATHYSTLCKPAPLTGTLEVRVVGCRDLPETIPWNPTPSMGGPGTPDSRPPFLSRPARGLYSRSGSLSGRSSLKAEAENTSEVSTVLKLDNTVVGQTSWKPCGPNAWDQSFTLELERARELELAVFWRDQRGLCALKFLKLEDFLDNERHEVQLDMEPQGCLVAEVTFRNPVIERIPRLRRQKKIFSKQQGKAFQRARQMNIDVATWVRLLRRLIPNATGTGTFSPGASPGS

B1: VP16 transcription activation domain fused to the head-rod domain of human NFL (amino acid sequence 1-349), pVP/NFL#21 (other)
chain: MSSFSYEPYYSTSYKRRYVETPRVHISSVRSGYSTARSAYSSYSAPVSSSLSVRRSYSSSSGSLMPSLENLDLSQVAAISNDLKSIRTQEKAQLQDLNDRFASFIERVHELEQQNKVLEAELLVLRQKHSEPSRFRALYEQEIRDLRLAAEDATNEKQALQGEREGLEETLRNLQARYEEEVLSREDAEGRLMEARKGADEAALARAELEKRIDSLMDEISFLKKVHEEEIAELQAQIQYAQISVEMDVTKPDLSAALKDIRAQYEKLAAKNMQNAEEWFKSRFTVLTESAAKNTDAVRAAKDEVSESRRLLKAKTLEIEACRGMNEALEKQLQELEDKQNADISAMQD
notes: range 1-349
As to B1, the binding result in assay [1] is “binds”.

B2: Gal4 activation domain fusion of library clone #21 (head-rod domain of human NFL, amino acid sequence 1-349), pGAD10-NFL#21 (other, UniProt P07196 1-349, looked up, not shown: large carriers)
chain: MSSFSYEPYYSTSYKRRYVETPRVHISSVRSGYSTARSAYSSYSAPVSSSLSVRRSYSSSSGSLMPSLENLDLSQVAAISNDLKSIRTQEKAQLQDLNDRFASFIERVHELEQQNKVLEAELLVLRQKHSEPSRFRALYEQEIRDLRLAAEDATNEKQALQGEREGLEETLRNLQARYEEEVLSREDAEGRLMEARKGADEAALARAELEKRIDSLMDEISFLKKVHEEEIAELQAQIQYAQISVEMDVTKPDLSAALKDIRAQYEKLAAKNMQNAEEWFKSRFTVLTESAAKNTDAVRAAKDEVSESRRLLKAKTLEIEACRGMNEALEKQLQELEDKQNADISAMQD
notes: range 1-349; also called clone#21 protein; plasmid #21
Take B2: the binding result in assay [2] was “binds”.

B3: PKN (39-53) peptide (peptide)
peptide: RERLRREIRKELKLK
As to B3, in assay [3], the Ki came to 41 µM. Further, the “IC50 (inhibition of δPKC peptide phosphorylation by PKN)” value in assay [4] was ~80 µM. For the same molecule, in assay [5], the “IC50 (inhibition of Kemptide phosphorylation by PKA)” value is ≥ 1000 µM.

B4: GST-HuActSkl (837-894) (other, human, UniProt P35609 837-894, looked up)
chain: ILASDKPYILAEELRRELPPDQAQYCIKRMPAYSGPGSVPGALDYAAFSSALYGESDL
notes: not shown: glutathione S-transferase (GST) tag
Regarding B4, the binding result in assay [6] is reported as “no binding”.

B5: GST-HuActSkl (604-719) (other, human, UniProt P35609 604-719, looked up)
chain: MDELRTKWDKVKQLVPIRDQSLQEELARQHANERLRRQFAAQANAIGPWIQNKMEEIARSSIQITGALEDQMNQLKQYEHNIINYKNNIDKLEGDHQLIQEALVFDNKHTNYTMEH
notes: as for B4
Turning to B5, in assay [6], the binding result is reported as “no binding”.

B6: VP16 transcription activation domain fused to the head-rod domain of NFM, pVP/NFMhr (other)
chain: MSYTLDSLGNPSAYRRVTETRSSFSRVSGSPSSGFRSQSWSRGSPSTVSSSYKRSMLAPRLAYSSAMLSSAESSLDFSQSSSLLNGGSGPGGDYKLSRSNEKEQLQGLNDRFAGYIEKVHYLEQQNKEIEAEIQALRQKQASHAQLGDAYDQEIRELRATLEMVNHEKAQVQLDSDHLEEDIHRLKERFEEEARLRDDTEAAIRALRKDIEEASLVKVELDKKVQSLQDEVAFLRSNHEEEVADLLAQIQASHITVERKDYLKTDISTALKEIRSQLESHSDQNMHQAEEWFKCRYAKLTEAAEQNKEAIRSAKEEIAEYRRQLQSKSIELESVRGTKESLERQLSDIEERHNHDLSSYQDTIQQLENELRGTKWEMARHLREYQDLLNVKMALDIEIAAYRKLLEGEETR
notes: range 1-411
In the case of B6, the binding result in assay [1] is “binds”.

B7: truncated PKN, amino acid sequence 3-135, two-hybrid fusion (other)
chain: SDAVQSEPRSWSLLEQLGLAGADLAAPGVQQQLELERERLRREIRKELKLKEGAENLRRATTDLGRSLGPVELLLRGSSRRLDLLHQQLQELHAHVVLPDPAATHDGPQSPGAGGPTCSATNLSRVAGLEKQL
notes: also called PKN 3-135
For B7, the binding result in assay [7] is reported as “binds”.
